± gives the standard deviation.

The source of these data is the supplement of paper PMC10567573.

The data set can be described thus: protein stability index of a GFP-peptide fusion (GPS, HEK-293T) (PSI 1-6); higher = more stable.
Setting [1] is: treatment: DMSO, c terminus: a fixed tail appended.
The mark [2] stands for this setting: treatment: MLN4924 1 uM, 8 h, c terminus: a fixed tail appended.
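Further: 24-mer peptide tiles fused after GFP, lentivirally expressed, FACS-sorted into six equal bins by GFP/DsRed ratio, decoded by Illumina sequencing, PSI is the read-weighted mean bin number.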

For the sequence TMDGEGTLFQTESPQSGSILTEET [PBXIP1], the protein stability index by setting is: under setting [1], 5.44 ± 0.066; under setting [2], 5.43 ± 0.17.

Regarding TMTSSQSMNFSMMSTNTVGLGLPM [CLINT1], the protein stability index by setting is: under setting [1], 3.02 ± 0.18; under setting [2], 2.68 ± 0.083.

For the sequence TNETNVNIPQMADTLFERATNSSW [SNAP91], the protein stability index under setting [1] turned out to be 3.77 ± 0.11 and the protein stability index under setting [2] worked out at 3.99 ± 0.2.

TNLKETYRCIREARYTMPSSLLAP [PLK2] displayed a protein stability index under setting [1] of 2.34 ± 0.54 and a protein stability index under setting [2] of 2.3 ± 0.08.

TPLASSTDHQTPPTSPVQGTTPQI [HDAC6]: the protein stability index by setting is: under setting [1], 5.17 ± 0.16; under setting [2], 5.03 ± 0.16.

For the sequence TQEQARKEFQQVFIPECNDDGTYS [SMOC2], the protein stability index reads like this: under setting [1], 4.94 ± 0.27; under setting [2], 4.84 ± 0.18.

Consider TQSWSSQSSFNSLQRVPSYDSFDS [ETS1], for which the protein stability index is, setting by setting: under setting [1], 4.06 ± 0.2; under setting [2], 3.98 ± 0.22.

For TRAILRERICSEEERAKAKHLARQ [CHCHD3], the protein stability index runs as follows: under setting [1], 3.52 ± 0.33; under setting [2], 3.76 ± 0.27.

As for TRGWVQTLARMSRRTRGPVERAAA [C6orf223], the protein stability index was 3.23 ± 0.22 under setting [1] and 3.57 ± 0.098 under setting [2].

As to TRKREDAEHNLVLFRKDVDDATLS [PRPH], the protein stability index is, setting by setting: under setting [1], 4.77 ± 0.18; under setting [2], 4.73 ± 0.097.

TRLEQEIATYRSLLEGQDAKMAGI [KRT15]: the protein stability index under setting [1] stood at 3.7 ± 0.22 and the protein stability index under setting [2] turned out to be 3.72 ± 0.18.

Take TRLLLQFTQPQQTSFALERNLRTQ [C8orf76]: the protein stability index is, setting by setting: under setting [1], 2.33 ± 0.46; under setting [2], 2.52 ± 0.27.

On to TRQNGIQTNKPALRAVRQRSEFTL [STX5], for which the protein stability index is 3.19 ± 0.32 under setting [1] and 3.37 ± 0.39 under setting [2].

As to TSLGLTYDGMLSDVQSMPKTGILI [MAGEA10], the protein stability index amounted to 1.93 ± 0.39 under setting [1] and 2.13 ± 0.41 under setting [2].

Turning to TSRGKLGGQDSFESIESYDSCDRL [ETS1], the protein stability index is 4.62 ± 0.16 under setting [1] and 4.68 ± 0.13 under setting [2].

TSTPEDKESGQEGVDSMAEEGTSD [SMARCE1] yielded a protein stability index under setting [1] of 5.65 ± 0.25 and a protein stability index under setting [2] of 5.51 ± 0.33.

TVEKDESHAGKVVLRSWYEKNKHI [FAM50A]: the protein stability index by setting is: under setting [1], 3.74 ± 0.33; under setting [2], 3.87 ± 0.18.

As to TVFCLVVIFALCWFPLHLSRILKK [EDNRA], the protein stability index stood at 2.41 ± 0.61 under setting [1] and 2.42 ± 1.3 under setting [2].

Take TVGVYEAAKLLNVDPDNVVLCLLA [GADD45A]: the protein stability index was found to be 2.26 ± 0.17 under setting [1] and 2.4 ± 0.22 under setting [2].

TVTSLQVPVLKPMDLMVEVSPRRI [PPP2R2C]: the protein stability index is, setting by setting: under setting [1], 2.52 ± 0.18; under setting [2], 2.65 ± 0.32.

Turning to TWMLEVCEEQKCEEEVFPLAMNYL [CCND2], the protein stability index is, setting by setting: under setting [1], 2.84 ± 0.23; under setting [2], 2.89 ± 0.3.

Consider TYAVRKLDNTKFRSHEGETAYIRV [SRSF1], for which the protein stability index is, setting by setting: under setting [1], 2.46 ± 0.39; under setting [2], 2.38 ± 0.3.

VAERKYTQEQARKEFQQVFIPECN [SMOC2]: the protein stability index is 4.38 ± 0.19 under setting [1] and 4.41 ± 0.23 under setting [2].

Turning to VCQRMLNQGFLKVERYHNLCQKQV [FBXO28], the protein stability index runs as follows: under setting [1], 2.18 ± 0.36; under setting [2], 2.37 ± 0.27.

For VCYFTNWAQYRQGEARFLPKDLDP [CHIT1], the protein stability index came to 2.32 ± 0.14 under setting [1] and 2.34 ± 0.17 under setting [2].

With VEEILDRENKRMADSLASKVTRLK [BET1L], the protein stability index is 4.31 ± 0.4 under setting [1] and 4.52 ± 0.23 under setting [2].

On to VEFNHTGELLATGDKGGRVVIFQR [PPP2R2C], for which the protein stability index reads like this: under setting [1], 2.54 ± 0.59; under setting [2], 2.85 ± 0.44.

As for VEGAMHIQECVPEDLELKKKIFAQ [CRYL1], the protein stability index under setting [1] is 4.74 ± 0.45 and the protein stability index under setting [2] was determined as 4.27 ± 0.2.

Consider VEKLKQMQEFFGLKVTGKPDAETL [MMP1], for which the protein stability index under setting [1] worked out at 3.63 ± 0.23 and the protein stability index under setting [2] was 3.83 ± 0.16.

In the case of VELARYLVDVRQEQLQGFNTRVRE [DNAAF3], the protein stability index is, setting by setting: under setting [1], 2.54 ± 0.36; under setting [2], 2.77 ± 0.13.

VEMESEEQIAERKRKMVSWEASSL [KMT2E]: the protein stability index by setting is: under setting [1], 3.67 ± 0.22; under setting [2], 3.87 ± 0.73.

Regarding VENKEKDSNMPHFQTLQAIVSHFQ [CEP70], the protein stability index is 2.89 ± 0.27 under setting [1] and 3.18 ± 0.36 under setting [2].

As to VFWPQLPNGLEAAYEFADRDEVRF [MMP1], the protein stability index runs as follows: under setting [1], 2.86 ± 0.26; under setting [2], 3.1 ± 0.3.

Turning to VGGATLAQTTSEAAMEGATLDQTT [HDAC6], the protein stability index runs as follows: under setting [1], 5.44 ± 0.11; under setting [2], 5.39 ± 0.26.

Consider VGWWALLALVTLLSFATRFHRLDE [POMT2], for which the protein stability index came out at 3.42 ± 0.39 under setting [1] and 2.98 ± 0.39 under setting [2].

As to VHFSEAIEKFIREPSLKATMGLAG [ALG2], the protein stability index reads like this: under setting [1], 2.33 ± 0.27; under setting [2], 2.43 ± 0.24.

As to VHIETFTTRHGEVGSALHRESFTS [C10orf62], the protein stability index reads like this: under setting [1], 2.57 ± 0.35; under setting [2], 2.47 ± 0.58.

Take VHNIVIFMRTSVKISYIGLMTQSS [TMEM106C]: the protein stability index under setting [1] stood at 2.83 ± 0.38 and the protein stability index under setting [2] came out at 3.03 ± 0.32.

VIDLAESLVADNCVTLVWRMPDED [FSD1] returned a protein stability index under setting [1] of 2.35 ± 0.33 and a protein stability index under setting [2] of 2.79 ± 0.27.

On to VIKISYSTPQGKGEVVKIPSRVHG [PWWP2B], for which the protein stability index runs as follows: under setting [1], 2.5 ± 0.2; under setting [2], 2.79 ± 0.3.

On to VISLLNEPNTFSPANVDASVMFRK [UBE2R2], for which the protein stability index stood at 2.79 ± 0.31 under setting [1] and 3.04 ± 0.2 under setting [2].

On to VITYILLSGASPFLGETKQETLTN [DAPK3], for which the protein stability index was 2.75 ± 0.26 under setting [1] and 2.86 ± 0.4 under setting [2].

On to VIYCLGGYDGLNILNSVEKYDPHT [KLHL12], for which the protein stability index came to 2.39 ± 0.54 under setting [1] and 2.18 ± 0.39 under setting [2].

As to VKKSCWTEEEDRIICEAHKVLGNR [MYBL2], the protein stability index turned out to be 3.33 ± 0.52 under setting [1] and 3.58 ± 0.34 under setting [2].

Turning to VLDCRPYLAFAASNVRGSLNVNLN [DUSP5], the protein stability index turned out to be 2.19 ± 0.34 under setting [1] and 1.99 ± 0.39 under setting [2].

Consider VLDELTLARADLEMQIENLKEELA [KRT17], for which the protein stability index turned out to be 3.04 ± 0.29 under setting [1] and 3.1 ± 0.37 under setting [2].

Sequence VLDLEARGYIKPHVDSIKFCGATI [ALKBH7] yielded a protein stability index under setting [1] of 2.14 ± 0.26 and a protein stability index under setting [2] of 2.15 ± 0.42.

As to VLEQFLTILPQEIQSRVQELHPES [ZNF263], the protein stability index reads like this: under setting [1], 2.56 ± 0.31; under setting [2], 2.53 ± 0.39.

Regarding VLGEDVIVNDELYLNGASVLPHKS [GMPPB], the protein stability index runs as follows: under setting [1], 4.23 ± 0.28; under setting [2], 4.31 ± 0.18.

Consider VLGIQVKCFHEIITIGYRVYHSYD [CDS1], for which the protein stability index was found to be 3.25 ± 0.25 under setting [1] and 3.04 ± 0.17 under setting [2].

Consider VLLQTSPYHVDSLLQLSDACRFQE [TCF25], for which the protein stability index runs as follows: under setting [1], 2.22 ± 0.41; under setting [2], 2.41 ± 0.56.

For VNAVRKLLIEGRSVNEHTEEGESL [ANKRD17], the protein stability index worked out at 4.73 ± 0.24 under setting [1] and 4.79 ± 0.35 under setting [2].

As to VPARDGTSCKLTDLRGVCVSGKCE [ADAMTSL2], the protein stability index amounted to 3.95 ± 0.23 under setting [1] and 3.92 ± 0.29 under setting [2].

Consider VPPKDSAPKDSAPQDLAPQVSAHH [TBC1D10A], for which the protein stability index by setting is: under setting [1], 5.47 ± 0.19; under setting [2], 5.4 ± 0.18.

Turning to VQFVFDAVTDVIIKNNLKDCGLF [GNAI1], the protein stability index turned out to be 2.68 ± 0.81 (treatment: DMSO, c terminus: native) and 2.61 ± 0.73 (treatment: MLN4924 1 uM, 8 h, c terminus: native).

Sequence VQLQRIPLSAVYRICLGKFTFPGM [TPRG1] had a protein stability index under setting [1] of 2.65 ± 0.69 and a protein stability index under setting [2] of 2.21 ± 0.43.

VQYGAGVACSETAPDLVLNAEMVQ [LOXL2] had a protein stability index under setting [1] of 4.108 ± 0.007 and a protein stability index under setting [2] of 4.47 ± 0.25.

For the sequence VRLQERTSGGLLSEAPNEKLFFVD [NOP53], the protein stability index by setting is: under setting [1], 3.5 ± 0.32; under setting [2], 3.34 ± 0.33.

The sequence VRPGTPPDFILKVVIDKHPVRFFV [CTDNEP1] showed a protein stability index under setting [1] of 2.95 ± 0.49 and a protein stability index under setting [2] of 2.92 ± 0.42.

As to VRYNRVGILRRILRTLRDFPAEER [ANKRD9], the protein stability index reads like this: under setting [1], 2.4 ± 0.16; under setting [2], 2.6 ± 0.56.

The sequence VSGDLTKEDIDLIDILWRQDIDLG [NFE2L1] yielded a protein stability index under setting [1] of 3.02 ± 0.78 and a protein stability index under setting [2] of 3.58 ± 0.61.

As for VSGFCRSPPVMVAGGRVFVLPCIQ [FLOT1], the protein stability index is, setting by setting: under setting [1], 2.43 ± 0.38; under setting [2], 2.45 ± 0.5.

In the case of VSGINHDVTSGDHGDYFRLLLPGI [CPN1], the protein stability index reads like this: under setting [1], 2.46 ± 0.28; under setting [2], 2.23 ± 0.38.

For VSTMRCKTRQKSEKQMEEKRRANQ [PPEF2], the protein stability index under setting [1] is 4.41 ± 0.7 and the protein stability index under setting [2] came to 4.79 ± 0.24.

For VTAEVDLFGDAFAASPGEAPAASE [SNAP91], the protein stability index turned out to be 5.02 ± 0.26 under setting [1] and 5.02 ± 0.16 under setting [2].

As for VTFKLDDGAISAHKPLLICSCEWM [RHOBTB1], the protein stability index is, setting by setting: under setting [1], 3.08 ± 0.33; under setting [2], 2.56 ± 0.62.

Consider VTKLCVQFLNDQISVQNYKQVCKI [KLHL14], for which the protein stability index runs as follows: under setting [1], 2.76 ± 0.46; under setting [2], 2.42 ± 0.56.

As to VTLNFNVPGEFKQDVTVVGSAGRL [GFOD1], the protein stability index amounted to 2.23 ± 0.74 under setting [1] and 2.15 ± 0.37 under setting [2].

Regarding VTSIHKYMVRRYFNKPSRVPAPEA [MYORG], the protein stability index by setting is: under setting [1], 2.42 ± 0.14; under setting [2], 2.38 ± 0.3.

In the case of VVEEVRRRATSGGKWPQVLFFPEG [LPCAT4], the protein stability index is 2.75 ± 0.31 under setting [1] and 3.24 ± 0.26 under setting [2].

As for VVHWVQSIGLRDYAGNLHESGVHG [PPFIA4], the protein stability index by setting is: under setting [1], 2.56 ± 0.27; under setting [2], 1.93 ± 0.36.

On to VVKLENGEIETIARFGSGPCKTRD [APMAP], for which the protein stability index runs as follows: under setting [1], 3.77 ± 0.16; under setting [2], 3.72 ± 0.31.
